From US20220162337A1 (NATIONAL RESEARCH COUNCIL OF CANADA, published 2022)
Numbering of substitutions follows the chain as printed. In names and notes the source's numbering stands. Values belong to the binder of their own block, whether it stands above or below them.

Experiments:
[1] = target: T1, intact Her2 expressed at the cell surface (human, UniProt P04626 23-1255); assay: flow cytometry on SKOV3 cells, apparent KD, pH 5.2; FSA, SKOV3 cells, pH 5.2
T1 construct: whole, on cells; also called Her2 on SKOV3 cells; Her2 on JIMT-1 cells
Experimental: (§1) The cells were washed twice in 200 μL binding buffer, followed by addition of 120 μL 1.0% propidium iodide and samples were then transferred to Multiscreen 96-well plates (60 μm Nylon Mesh, Millipore, Etobicoke, ON) and filtered by centrifugation. The filtrate samples were collected from the Multiscreen receiver plate and transferred to a new V-bottom polypropylene plate at 4° C. Flow cytometric analysis was performed on a BD LSR-Fortessa instrument (BD Biosciences, San Jose, Calif.). […] Median fluorescence intensity (MFI) was reported by analyzing 3000 alive cells per sample with the gating strategy: all cells/singlets/alive cells (PI negative) using BD FACSDiva software (BD Biosciences).
(§2) The designed variants were then reformatted into human IgG1/k FSAs and re-tested on the high-density Her2 cells.

[2] = target: T1, intact Her2 expressed at the cell …; assay: flow cytometry on SKOV3 cells, apparent KD, pH 6.8; FSA, SKOV3 cells, pH 6.8
Experimental: as §1, §2

[3] = target: T1, intact Her2 expressed at the cell …; assay: flow cytometry on SKOV3 cells, pH 6.0 vs pH 7.3
Experimental: as §1, §2

[4] = target: T1, intact Her2 expressed at the cell …; assay: flow cytometry (FACS) on SKOV3 cells, full-size antibody, pH 6.0
Experimental: (§3) Cells in T-75 flasks were washed twice with D-PBS and then dissociated using Cell Dissociation buffer (Sigma, C5914) at 37° C. […] The cells were then washed twice by centrifugation at 233×g, removal of supernatant by aspiration and resuspending the cells in 200 μL binding buffer at 4° C. Detection reagent, either anti-human Fab or Fc AlexaFluor488-(Fab′)² (Jackson Immunochemicals, West Groove, Pa.), was then added at a final concentration of 10 μg/mL and samples were incubated at 4° C., 1 h. The cells were washed twice in 200 μL binding buffer, followed by addition of 120 μL 1.0% propidium iodide and samples were then transferred to Multiscreen 96-well plates (60 μm Nylon Mesh, Millipore, Etobicoke, ON) and filtered by centrifugation. The filtrate samples were collected from the Multiscreen receiver plate and transferred to a new V-bottom polypropylene plate at 4° C. Flow cytometric analysis was performed on a BD LSR-Fortessa instrument (BD Biosciences, San Jose, Calif.). […] Median fluorescence intensity (MFI) was reported by analyzing 3000 alive cells per sample with the gating strategy: all cells/singlets/alive cells (PI negative) using BD FACSDiva software (BD Biosciences).
as §2

[5] = target: T1, intact Her2 expressed at the cell …; assay: flow cytometry on SKOV3 cells, apparent KD, pH 5.6; FSA, SKOV3 cells, pH 5.6
Experimental: as §1, §2

[6] = target: T1, intact Her2 expressed at the cell …; assay: flow cytometry (FACS) on SKOV3 cells, full-size antibody, pH 5.2
Experimental: as §3, §2

[7] = target: T1, intact Her2 expressed at the cell …; assay: flow cytometry on SKOV3 cells, pH 6.8 vs pH 7.3
Experimental: as §1, §2

[8] = target: T1, intact Her2 expressed at the cell …; assay: flow cytometry on SKOV3 cells, apparent KD, pH 7.3 (Bmax not reached)
Experimental: as §1, §2

[9] = target: T1, intact Her2 expressed at the cell …; assay: flow cytometry (FACS) on SKOV3 cells, full-size antibody, pH 6.4
Experimental: as §3, §2

[10] = target: T1, intact Her2 expressed at the cell …; assay: flow cytometry on SKOV3 cells, apparent KD, pH 6.4; FSA, SKOV3 cells, pH 6.4
Experimental: as §1, §2

[11] = target: T1, intact Her2 expressed at the cell …; assay: flow cytometry on SKOV3 cells, apparent KD, pH 6.0; FSA, SKOV3 cells, pH 6.0
Experimental: as §1, §2

[12] = target: T2, Recombinant human Her2 extracellular domain (human, UniProt P04626 23-652); assay: SPR, Fab over immobilized Her2 ectodomain, pH 7.4, 25 C
T2 construct: extracellular domain; also called Her2 ectodomain; recombinant Her2 ectodomain
Experimental: (§4) Fab-Her2 interactions were analyzed using a Biacore™ T200 (GE Healthcare, Missisauga, ON) surface plasmon resonance instrument. […] Recombinant human Her2 extracellular domain (ThermoFisher Scientific, Burlington, ON) was immobilized onto a CM-5 sensorchip along with a mock-activated blank control surface for referencing. Her2 was diluted to 10 μg/mL in 10 mM NaOAc immobilization buffer pH 4.5 (Biacore) and immobilized to approximately 200 RUs using the Biacore control software Immobilization Wizard with standard NHS/EDC amine coupling. […] Fab samples were injected at 100 4/min with a contact time of 90 s and a 1200-s dissociation using either pH 5.0 or 7.4 running buffer. Sensorgrams were double referenced to the mock-activated blank sensor surface and analyzed for kinetic determination using a 1:1 binding model in BiaEvaluation software v3.1 (GE Healthcare).

[13] = target: T2, Recombinant human Her2 extracellular …; assay: SPR, Fab over immobilized Her2 ectodomain, pH 5.0, 25 C
Experimental: as §4

[14] = target: T1, intact Her2 expressed at the cell …; assay: flow cytometry on SKOV3 cells, apparent KD, pH 5.2 (Bmax not reached)
[15] = target: T1, intact Her2 expressed at the cell …; assay: flow cytometry on SKOV3 cells, apparent KD, pH 7.3
[16] = target: T1, intact Her2 expressed at the cell …; assay: flow cytometry on JIMT-1 cells (low Her2 density), full-size antibody, pH 6.0
[17] = target: T1, intact Her2 expressed at the cell …; assay: flow cytometry on SKOV3 cells, apparent KD, pH 6.0
[18] = target: T1, intact Her2 expressed at the cell …; assay: flow cytometry on SKOV3 cells, apparent KD, pH 6.8
[19] = target: T1, intact Her2 expressed at the cell …; assay: flow cytometry on SKOV3 cells, apparent KD, pH 6.4
[20] = target: T1, intact Her2 expressed at the cell …; assay: flow cytometry on JIMT-1 cells (low Her2 density), full-size antibody, pH 7.3
[21] = target: T1, intact Her2 expressed at the cell …; assay: flow cytometry on SKOV3 cells, apparent KD, pH 5.2
[22] = target: T1, intact Her2 expressed at the cell …; assay: flow cytometry on SKOV3 cells, apparent KD, pH 7.3; remark: listed apart in the source
[23] = target: T1, intact Her2 expressed at the cell …; assay: flow cytometry on SKOV3 cells, apparent KD, pH 5.6
[24] = target: T1, intact Her2 expressed at the cell …; assay: flow cytometry (FACS) on SKOV3 cells, full-size antibody, pH 7.3
[25] = target: T2, Recombinant human Her2 extracellular …; assay: SPR, acidic pH 5.0 vs physiological pH 7.4, relative to the parent bH1
Experimental: as §4

[26] = target: T2, Recombinant human Her2 extracellular …; assay: SPR, pH 5.0 vs pH 7.4
Experimental: as §4

[27] = target: T1, intact Her2 expressed at the cell …; assay: flow cytometry on SKOV3 cells, pH 5.2, against bH1-P5 and bH1-P5P7 Fabs
Experimental: (§5) The cells were then washed twice by centrifugation at 233×g, removal of supernatant by aspiration and resuspending the cells in 200 μL binding buffer at 4° C. Detection reagent, either anti-human Fab or Fc AlexaFluor488-(Fab′)² (Jackson Immunochemicals, West Groove, Pa.), was then added at a final concentration of 10 μg/mL and samples were incubated at 4° C., 1 h. The cells were washed twice in 200 μL binding buffer, followed by addition of 120 μL 1.0% propidium iodide and samples were then transferred to Multiscreen 96-well plates (60 μm Nylon Mesh, Millipore, Etobicoke, ON) and filtered by centrifugation. The filtrate samples were collected from the Multiscreen receiver plate and transferred to a new V-bottom polypropylene plate at 4° C. Flow cytometric analysis was performed on a BD LSR-Fortessa instrument (BD Biosciences, San Jose, Calif.). […] Median fluorescence intensity (MFI) was reported by analyzing 3000 alive cells per sample with the gating strategy: all cells/singlets/alive cells (PI negative) using BD FACSDiva software (BD Biosciences).

[28] = target: T1, intact Her2 expressed at the cell …; assay: flow cytometry on SKOV3 cells, apparent KD, pH 5.2 (Bmax not reached); Fab, SKOV3 cells, pH 5.2 (acidic); approximate, Bmax not reached
Experimental: as §5

[29] = target: T1, intact Her2 expressed at the cell …; assay: cell-based or functional assay

Kd [1]: 8.4 nM | Kd [2]: 29.7 nM | fold pH-selectivity, pH 6.0 over pH 7.3 [3]: > 10 fold | EC50 (read off the curve) [4]: ~10 nM | Kd [5]: 9.5 nM | EC50 (read off the curve) [6]: ~8 nM | fold pH-selectivity, pH 6.8 over pH 7.3 [7]: ~25 fold | Kd [8]: ~716 nM | EC50 (read off the curve) [9]: ~20 nM | Kd [10]: 16 nM | Kd [11]: 9.7 nM
B1: bH1-P5P7-FSA (antibody, human IgG1, kappa, V domains shown)
VH: not shown
VL: DIQMTQSPSSLSASVGDRVTITCRASQDIPHSISGYVAWYQQKPGKAPKLLIYWGSYLYSGVPSRFSGSGSGTDFTLTISSLQPEDFATYYCQQHYTTPPTFGQGTKVEIKR
notes: also called bH1-P5P7 full-size antibody

Kd [12]: 5.7 nM | Kd [13]: 17 nM
B2: bH1-P7 (L-R30aH) Fab (Fab, V domains shown)
VH: not shown
VL: B1 VL

Kd [12]: 3.4 nM | Kd [13]: 9.9 nM
B3: bH1-P8 (L-S30bH) Fab (Fab, V domains shown)
VH: not shown
VL: B1 VL with H31R, S32H

Kd [12]: 10 nM | koff [12]: 0.0048 s⁻¹ | kon [12]: 480000 M⁻¹ s⁻¹
B4: bH1-P6 (H-Y100aH) Fab (Fab, V domains shown)
VH: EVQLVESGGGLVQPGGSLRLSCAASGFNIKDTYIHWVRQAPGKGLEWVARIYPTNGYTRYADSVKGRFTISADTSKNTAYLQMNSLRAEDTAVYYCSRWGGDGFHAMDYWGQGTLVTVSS
VL: B1 VL with H31R

Kd [12]: 3 nM | Kd [13]: 13 nM | Kd [14]: ~41 nM | Kd [15]: 21.3 nM
B5: parental bH1-Fab (Fab, V domains shown)
VH: not shown
VL: B1 VL with H31R

EC50 (read off the curve) [16]: ~2 nM | Kd [17]: 2.9 nM | Kd [18]: 2 nM | EC50 (read off the curve) [4]: ~3 nM | Kd [19]: 2.9 nM | EC50 (read off the curve) [20]: ~2 nM | Kd [21]: 2.6 nM | Kd [22]: 4.1 nM | Kd [23]: 1.5 nM | EC50 (read off the curve) [6]: ~3 nM | EC50 (read off the curve) [9]: ~3 nM | EC50 (read off the curve) [24]: ~4 nM
B6: parental bH1-FSA (full-size human IgG1/k antibody) (antibody, V domains shown)
VH: not shown
VL: B1 VL with H31R

Kd [12]: 290 nM | koff [12]: 0.011 s⁻¹ | kon [12]: 40000 M⁻¹ s⁻¹ | Kd [13]: 50 nM | koff [13]: 0.0037 s⁻¹ | kon [13]: 90000 M⁻¹ s⁻¹ | ΔΔΔGbinding [25]: -1.91 kcal/mol | fold stronger binding at acidic pH than at physiological pH [26]: ~6 fold | fold stronger affinity than bH1-P5 and bH1-P5P7 [27]: ~2 fold | Kd [28]: ~93 nM
B7: bH1-P5P8 (H-R58H,L-S30bH) Fab (Fab, V domains shown)
VH: not shown
VL: B1 VL with H31R, S32H
notes: also called bH1-P5P8-Fab; bH1-P5P8 Fab

Kd [12]: 530 nM | koff [12]: 0.021 s⁻¹ | kon [12]: 40000 M⁻¹ s⁻¹ | Kd [13]: 90 nM | koff [13]: 0.0057 s⁻¹ | kon [13]: 70000 M⁻¹ s⁻¹ | ΔΔΔGbinding [25]: -1.93 kcal/mol | fold stronger binding at acidic pH than at physiological pH [26]: ~6 fold | Kd [28]: ~178 nM
B8: bH1-P5P7 (H-R58H,L-R30aH) Fab (Fab, V domains shown)
VH: not shown
VL: B1 VL
notes: also called bH1-P5P7-Fab

Kd [1]: 12.3 nM | Kd [2]: 21.7 nM | EC50 (read off the curve) [4]: ~10 nM | internalization of FITC conjugated antibody into BT474 cells, pH 6.4 [29]: 2 fold over negative control | EC50 (read off the curve) [6]: ~10 nM | Kd [8]: ~290 nM | EC50 (read off the curve) [9]: ~20 nM | Kd [10]: 15.1 nM
B9: bH1-P5P8-FSA (antibody, human IgG1, kappa, V domains shown)
VH: not shown
VL: B1 VL with H31R, S32H
notes: also called bH1-P5P8 full-size antibody
